Measurements published in article doi:10.1101/2021.09.29.461692 (bioRxiv, 2021).
Where a chain is given by its changes, count along the chain named. Numbers in names are those of the source.

B1: ketosteroid isomerase (KSI) Y32F/Y57F (enzyme, Pseudomonas putida)
chain: MNLPTAQEVQGLMARYIELVDVGDIEAIVQMFADDATVEDPFGQPPIHGREQIAAFFRQGLGGGKVRACLTGPVRASHNGCGAMPFRVEMVWNGQPCALDVIDVMRFDEHGRIQTMQAYWSEVNLSVREPQ
B2: ketosteroid isomerase (KSI) Y57F (enzyme, Pseudomonas putida)
chain: B1 chain with F32Y
B3: ketosteroid isomerase (KSI) Y57F/D40N (enzyme, Pseudomonas putida)
chain: LPTAQEVQGLMARYIELVDVGDIEAIVQMYADDATVENPFGQPPIHGREQIAAFFRQGLGGGKVRACLTGPVRASHNGCGAMPFRVEMVWNGQPCALDVIDVMRFDEHGRIQTMQAYWSEVNLSVREPQ

Biological target: the molecule itself
Experiment: crystal structure

Row | Protein | stoichiometry N
1 | B1 | 2
2 | B2 | 2
3 | B3 | 2
